Legend:
Experiment in all cases: MITOMI saturation binding
Gsc = Gsc (Drosophila melanogaster, UniProt P54366 1-415)
z = target: T1, z (Drosophila melanogaster, UniProt P09956 1-575)
T1 sequence: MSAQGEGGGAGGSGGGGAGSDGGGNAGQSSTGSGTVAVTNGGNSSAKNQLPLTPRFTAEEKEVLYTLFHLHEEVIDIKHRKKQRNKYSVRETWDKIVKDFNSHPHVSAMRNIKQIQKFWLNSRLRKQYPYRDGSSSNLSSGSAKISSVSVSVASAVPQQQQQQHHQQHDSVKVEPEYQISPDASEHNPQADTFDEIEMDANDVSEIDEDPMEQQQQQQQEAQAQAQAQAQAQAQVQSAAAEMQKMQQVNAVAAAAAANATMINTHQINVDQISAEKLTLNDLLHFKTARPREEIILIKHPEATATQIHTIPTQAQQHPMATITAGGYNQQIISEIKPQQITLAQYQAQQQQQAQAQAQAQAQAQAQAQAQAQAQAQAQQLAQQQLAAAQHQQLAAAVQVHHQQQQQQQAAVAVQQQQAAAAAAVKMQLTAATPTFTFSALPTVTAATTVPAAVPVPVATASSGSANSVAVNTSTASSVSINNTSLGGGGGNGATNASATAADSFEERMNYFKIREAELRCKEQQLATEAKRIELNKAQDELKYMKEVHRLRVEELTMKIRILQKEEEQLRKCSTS

Sox21a = Sox21a (Drosophila melanogaster, UniProt Q9VUD1 1-388)
gooseberry (gsb) = gooseberry (gsb) (Drosophila melanogaster, UniProt P09082 1-427)
gooseberry-neuro (gsb-n) = gooseberry-neuro (gsb-n) (Drosophila melanogaster, UniProt P09083 1-449)
slbo = slbo (Drosophila melanogaster, UniProt Q02637 1-449)
Sequence of slbo (Q02637 whole entry): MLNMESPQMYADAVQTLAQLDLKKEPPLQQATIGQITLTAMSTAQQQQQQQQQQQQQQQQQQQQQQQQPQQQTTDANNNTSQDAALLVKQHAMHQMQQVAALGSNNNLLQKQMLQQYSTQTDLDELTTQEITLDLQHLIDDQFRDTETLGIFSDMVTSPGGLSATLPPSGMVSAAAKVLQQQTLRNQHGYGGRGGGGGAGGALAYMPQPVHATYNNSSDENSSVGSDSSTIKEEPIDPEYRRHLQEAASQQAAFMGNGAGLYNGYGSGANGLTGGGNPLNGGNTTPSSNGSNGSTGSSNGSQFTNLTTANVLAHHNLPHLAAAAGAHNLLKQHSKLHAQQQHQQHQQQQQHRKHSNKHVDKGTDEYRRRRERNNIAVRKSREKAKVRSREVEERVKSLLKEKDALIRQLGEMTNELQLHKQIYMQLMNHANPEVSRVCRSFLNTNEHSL

Sequence of Gsc (P54366 whole entry): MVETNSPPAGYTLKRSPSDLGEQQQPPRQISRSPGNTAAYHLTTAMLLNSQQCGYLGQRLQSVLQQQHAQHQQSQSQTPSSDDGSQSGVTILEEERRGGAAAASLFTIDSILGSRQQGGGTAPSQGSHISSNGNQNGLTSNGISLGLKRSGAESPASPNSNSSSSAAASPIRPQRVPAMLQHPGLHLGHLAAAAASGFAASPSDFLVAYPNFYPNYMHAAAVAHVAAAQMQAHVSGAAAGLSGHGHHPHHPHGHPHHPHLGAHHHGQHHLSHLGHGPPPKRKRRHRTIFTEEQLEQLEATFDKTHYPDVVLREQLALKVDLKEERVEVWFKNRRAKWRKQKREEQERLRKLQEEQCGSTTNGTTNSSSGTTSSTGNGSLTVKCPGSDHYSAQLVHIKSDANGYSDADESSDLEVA
Sequence of gooseberry-neuro (gsb-n) (P09083 whole entry): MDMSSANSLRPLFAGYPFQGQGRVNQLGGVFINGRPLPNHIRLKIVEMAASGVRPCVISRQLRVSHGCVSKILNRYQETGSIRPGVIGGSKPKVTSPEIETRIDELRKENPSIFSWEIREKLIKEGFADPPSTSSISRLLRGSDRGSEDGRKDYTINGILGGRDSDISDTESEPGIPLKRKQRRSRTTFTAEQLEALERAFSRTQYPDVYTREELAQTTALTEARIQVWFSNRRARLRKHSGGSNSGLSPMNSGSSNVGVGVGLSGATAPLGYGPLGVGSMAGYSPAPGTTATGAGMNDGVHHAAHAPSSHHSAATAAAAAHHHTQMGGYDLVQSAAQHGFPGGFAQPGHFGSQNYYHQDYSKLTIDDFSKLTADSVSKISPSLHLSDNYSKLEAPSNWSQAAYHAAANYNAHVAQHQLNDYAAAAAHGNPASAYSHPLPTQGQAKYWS
Sequence of gooseberry (gsb) (P09082 whole entry): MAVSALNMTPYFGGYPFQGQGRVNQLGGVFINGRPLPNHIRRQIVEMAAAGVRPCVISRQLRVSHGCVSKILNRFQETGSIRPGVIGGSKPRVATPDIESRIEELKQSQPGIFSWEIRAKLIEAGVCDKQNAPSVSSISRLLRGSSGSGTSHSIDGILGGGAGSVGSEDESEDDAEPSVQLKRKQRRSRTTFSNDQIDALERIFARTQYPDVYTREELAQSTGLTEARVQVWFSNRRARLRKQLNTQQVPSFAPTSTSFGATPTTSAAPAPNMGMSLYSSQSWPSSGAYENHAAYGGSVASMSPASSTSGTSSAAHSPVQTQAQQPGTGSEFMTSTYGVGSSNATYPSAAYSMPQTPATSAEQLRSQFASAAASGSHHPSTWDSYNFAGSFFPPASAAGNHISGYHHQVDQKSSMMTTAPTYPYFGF

B1: bcd motif (dsDNA)
DNA 1: CGCGGATTAGCTCCGGCGGTATGAC
DNA 2: GTCATACCGCCGGAGCTAATCCGCG
binding result (Gsc): binds
binding result (z): binds

B2: D motif (dsDNA)
DNA 1: CGCGTCCATTGTTCTCTCCGGCGGTATGAC
DNA 2: GTCATACCGCCGGAGAGAACAATGGACGCG
binding result (Sox21a): binds

B3: prd motif (dsDNA)
DNA 1: CGCCCAATTTGTCACGCTCTCCGGCGGTATGAC
DNA 2: GTCATACCGCCGGAGAGCGTGACAAATTGGGCG
binding result (gooseberry (gsb)): binds
binding result (gooseberry-neuro (gsb-n)): binds
binding result (z): binds

B4: gt motif (dsDNA)
DNA 1: CGCATTACGTAATAACTCCGGCGGTATGAC
DNA 2: GTCATACCGCCGGAGTTATTACGTAATGCG
binding result (slbo): binds
